According to patent publication US20220002427A1 (ENGMAB SARL, published 2022):
“And” between values parts separate entries of the source, which are not always exact repeats. Equal values may be shown once.

T1: recombinant human BCMA Fc(kih) (human, UniProt Q02223 4-53, site-specifically biotinylated at the C-terminal avi-tag ; Biotin on the avi-tag at the C-terminus of the Fc knob chain (tag and Fc left out).)
T1 construct: Knobs-into-holes heterodimer carrying one BCMA ectodomain; also called huBCMA Fc(kih); huBCMA; not shown: human IgG1 hinge-Fc knob chain with C-terminal avi-tag, and the unfused Fc hole chain
T1 chain: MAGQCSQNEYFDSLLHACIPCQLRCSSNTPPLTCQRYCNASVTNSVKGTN

T2: human BCMA on cells (human, UniProt Q02223 1-184)
T2 construct: whole, on cells; also called huBCMA on HEK cells; HEK-huBCMA cells
T2 sequence (looked up): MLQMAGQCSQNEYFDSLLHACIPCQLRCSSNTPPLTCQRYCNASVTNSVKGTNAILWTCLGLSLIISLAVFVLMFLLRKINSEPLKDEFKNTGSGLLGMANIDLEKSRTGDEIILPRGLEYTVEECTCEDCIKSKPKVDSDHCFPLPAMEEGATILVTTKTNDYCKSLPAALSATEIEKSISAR

B1: Mab 21 IgG (antibody, V domains shown)
VH: EVQLLESGGGLVQPGGSLRLSCAASGFTFSDNAMGWVRQAPGKGLEWVSAISGPGSSTYYADSVKGRFTISRDNSKNTLYLQMNSLRAEDTAVYYCAKVLGWFDYWGQGTLVTVSS
VL: EIVLTQSPGTLSLSPGERATLSCRASQSVSEYYLAWYQQKPGQAPRLLIEHASTRATGIPDRFSGSGSGTDFTLTISRLEPEDFAVYYCQQYGYPPDFTFGQGTKVEIK
notes: also called antibody 21
B2: Mab 14 (antibody, V domains shown)
VH: EVQLLESGGGLVQPGGSLRLSCAASGFTFYTNAMGWVRQAPGKGLEWVSAINRFGGSTYYADSVKGRFTISRDNSKNTLYLQMNSLRAEDTAVYYCAKVLGWFDYWGQGTLVTVSS
VL: EIVLTQSPGTLSLSPGERATLSCRASQSVSDEYLSWYQQKPGQAPRLLIHSASTRATGIPDRFSGSGSGTDFTLAISRLEPEDFAVYYCQQYGYPPDFTFGQGTKVEIK
notes: IgG variant (VH/VL combination)
B3: Mab 28 (antibody, V domains shown)
VH: EVQLLESGGGLVQPGGSLRLSCAASGFTFSSAPMGWVRQAPGKGLEWVSAISYIGHTYYADSVKGRFTISRDNSKNTLYLQMNSLRAEDTAVYYCAKVLGWFDYWGQGTLVTVSS
VL: EIVLTQSPGTLSLSPGERATLSCRASQSVSSYYLAWYQQKPGQAPRLLISGAGSRATGIPDRFSGSGSGTDFTLTISRLEPEDFAVYYCQQYGYPPDFTFGQGTKVEIK
notes: IgG variant
B4: Mab 22 IgG (antibody, V domains shown)
VH: EVQLLESGGGLVQPGGSLRLSCAASGFTFSDNAMGWVRQAPGKGLEWVSAISGPGSSTYYADSVKGRFTISRDNSKNTLYLQMNSLRAEDTAVYYCAKVLGWFDYWGQGTLVTVSS
VL: EIVLTQSPGTLSLSPGERATLSCRASQSVSSYYLAWYQQKPGQAPRLLISGAGSRATGIPDRFSGSGSGTDFTLTISRLEPEDFAVYYCQQYGYPPDFTFGQGTKVEIK
notes: also called antibody 22; clone 22
B5: Mab 39 IgG (antibody, V domains shown)
VH: EVQLLESGGGLVQPGGSLRLSCAASGFTFTQNAMGWVRQAPGKGLEWVSAISPTGFSTYYADSVKGRFTISRDNSKNTLYLQMNSLRAEDTAVYYCAKVLGWFDYWGQGTLVTVSS
VL: EIVLTQSPGTLSLSPGERATLSCRASQSVSEYYLAWYQQKPGQAPRLLIEHASTRATGIPDRFSGSGSGTDFTLTISRLEPEDFAVYYCQQYGYPPDFTFGQGTKVEIK
B6: Mab 34 (antibody, V domains shown)
VH: EVQLLESGGGLVQPGGSLRLSCAASGFTFYTNAMGWVRQAPGKGLEWVSAINRFGGSTYYADSVKGRFTISRDNSKNTLYLQMNSLRAEDTAVYYCAKVLGWFDYWGQGTLVTVSS
VL: EIVLTQSPGTLSLSPGERATLSCRASQSVSSYYLAWYQQKPGQAPRLLISGAGSRATGIPDRFSGSGSGTDFTLTISRLEPEDFAVYYCQQYGYPPDFTFGQGTKVEIK
notes: IgG variant
B7: Mab 44 (antibody, V domains shown)
VH: EVQLLESGGGLVQPGGSLRLSCAASGFTFSSAPMGWVRQAPGKGLEWVSAISYIGHTYYADSVKGRFTISRDNSKNTLYLQMNSLRAEDTAVYYCAKVLGWFDYWGQGTLVTVSS
VL: EIVLTQSPGTLSLSPGERATLSCRASQSVSDEYLSWYQQKPGQAPRLLIHSASTRATGIPDRFSGSGSGTDFTLAISRLEPEDFAVYYCQQYGYPPDFTFGQGTKVEIK
notes: IgG variant
B8: Mab 33 IgG (antibody, V domains shown)
VH: EVQLLESGGGLVQPGGSLRLSCAASGFTFYTNAMGWVRQAPGKGLEWVSAINRFGGSTYYADSVKGRFTISRDNSKNTLYLQMNSLRAEDTAVYYCAKVLGWFDYWGQGTLVTVSS
VL: EIVLTQSPGTLSLSPGERATLSCRASQSVSEYYLAWYQQKPGQAPRLLIEHASTRATGIPDRFSGSGSGTDFTLTISRLEPEDFAVYYCQQYGYPPDFTFGQGTKVEIK

Assays:
[1] = molecular target: T3, recombinant cynomolgus BCMA Fc(kih) (cynomolgus, UniProt A0A2K5UD97 4-51); assay: SPR one-shot kinetics (ProteOn XPR36), IgG captured from HEK293 supernatant via anti-human F(ab)2, BCMA as analyte
T3 sequence (A0A2K5UD97 entry or part of it): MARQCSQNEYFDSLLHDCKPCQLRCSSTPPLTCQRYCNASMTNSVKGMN
Experimental: (§1) All experiments were performed at 25° C. using PBST as running buffer (10 mM PBS, pH 7.4 and 0.005% (v/v) Tween®20). A ProteOn XPR36 biosensor equipped with GLC and GLM sensor chips and coupling reagents (10 mM sodium acetate, pH 4.5, sulfo-N-hydroxysuccinimide, 1-ethyl-3-(3-dimethylaminopropyl)-carbodiimide hydrochloride [EDC] and ethanolamine) was purchased from BioRad Inc. (Hercules, Calif.). Immobilizations were performed at 30 μl/min. on a GLM chip. pAb (goat) anti hu IgG, F(ab)2 specific Ab (Jackson) was coupled in vertical direction using a standard amine-coupling procedure: all six ligand channels were activated for 5 min with a mixture of EDC (200 mM) and sulfo-NHS (50 mM). Immediately after the surfaces were activated, pAb (goat) anti hu IgG, F(ab)2 specific antibody (50 μg/ml, 10 mM sodium acetate, pH 5) was injected across all six channels for 5 min. Finally, channels were blocked with a 5 min injection of 1 M ethanolamine-HCl (pH 8.5). […] One-shot kinetic measurements were performed by injection of a dilution series of human, cyno and mouse BCMA (50, 10, 2, 0.4, 0.08, 0 nM, 50 μl/min) for 3 min along the vertical channels. Dissociation was monitored for 5 min Kinetic data were analyzed in ProteOn Manager v. 2.1. Processing of the reaction spot data involved applying an interspot-reference and a double-reference step using an inline buffer blank (Myszka, 1999). The processed data from replicate one-shot injections were fit to a simple 1:1 Langmuir binding model without mass transport (O'Shannessy et al., 1993).

[2] = molecular target: T4, murine BCMA extracellular domain, monomeric Fc-fusion (murine, UniProt O88472 1-49, site-specifically biotinylated at the C-terminal avi-tag); assay: as above
T4 construct: extracellular domain; also called muBCMA; mouse BCMA; not shown: hinge and Fc of human IgG1, knob chain; avi-tag; unfused human IgG1 Fc portion (hole chain)
T4 sequence (O88472 whole entry, the tested form may be a part): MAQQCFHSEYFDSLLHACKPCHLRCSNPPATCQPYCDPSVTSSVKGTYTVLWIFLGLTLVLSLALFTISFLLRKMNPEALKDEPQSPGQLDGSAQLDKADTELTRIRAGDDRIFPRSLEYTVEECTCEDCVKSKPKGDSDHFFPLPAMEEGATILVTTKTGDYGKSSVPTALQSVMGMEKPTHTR
Experimental: as §1

[3] = molecular target: T1, recombinant human BCMA Fc(kih); assay: as above
Experimental: as §1

[4] = molecular target: T3, recombinant cynomolgus BCMA Fc(kih); assay: SPR (Biacore T200), IgG captured via anti-human Fab, BCMA Fc(kih) as analyte, 1:1 Langmuir fit
Experimental: (§2) Assessment of binding of anti-BCMA antibodies to recombinant BCMA by surface plasmon resonance (SPR) as follow. […] The avidity of the interaction between anti-BCMA antibodies and recombinant BCMA Fc(kih) (human and cynomolgus) was determined. Biotinylated recombinant human and cynomolgus BCMA Fc(kih) were directly coupled on a SA chip following instructions (Biacore, Freiburg/Germany). The immobilization level ranged from 200 to 700 RU. […] The dissociation was monitored for 180 seconds. Bulk refractive index differences were corrected for by subtracting the response obtained on the reference flow cell. Here, the anti-BCMA antibodies were flown over an empty surface previously activated and deactivated as described in the standard amine coupling kit. Apparent kinetic constants were derived using the Biacore T200 Evaluation Software (vAA, Biacore AB, Uppsala/Sweden), to fit rate equations for 1:1 Langmuir binding by numerical integration, despite the bivalency of the interaction for comparison purposes. The affinity of the interaction between anti-BCMA antibodies and recombinant human BCMA Fc(kih) was also determined. Anti-human Fab antibody (GE Healthcare) was directly coupled on a CMS chip at pH 5.0 using the standard amine coupling kit (Biacore, Freiburg/Germany). The immobilization level was about 6500 RU. […] The dissociation was monitored for 120 seconds. Bulk refractive index differences were corrected for by subtracting the response obtained on reference flow cell. […] Kinetic constants were derived using the Biacore T100 Evaluation Software (vAA, Biacore AB, Uppsala/Sweden), to fit rate equations for 1:1 Langmuir binding by numerical integration (Table 4).

[5] = molecular target: T1, recombinant human BCMA Fc(kih); assay: as above
Experimental: as §2

[6] = molecular target: T3, recombinant cynomolgus BCMA Fc(kih); assay: ratio of SPR KD values (KD cynomolgus BCMA / KD human BCMA), reference human BCMA Fc(kih)
Experimental: The avidity of the interaction between anti-BCMA antibodies and recombinant BCMA Fc(kih) (human and cynomolgus) was determined. Biotinylated recombinant human and cynomolgus BCMA Fc(kih) were directly coupled on a SA chip following instructions (Biacore, Freiburg/Germany). The immobilization level ranged from 200 to 700 RU. […] The dissociation was monitored for 180 seconds. Bulk refractive index differences were corrected for by subtracting the response obtained on the reference flow cell. Here, the anti-BCMA antibodies were flown over an empty surface previously activated and deactivated as described in the standard amine coupling kit. Apparent kinetic constants were derived using the Biacore T200 Evaluation Software (vAA, Biacore AB, Uppsala/Sweden), to fit rate equations for 1:1 Langmuir binding by numerical integration, despite the bivalency of the interaction for comparison purposes. The affinity of the interaction between anti-BCMA antibodies and recombinant human BCMA Fc(kih) was also determined. Anti-human Fab antibody (GE Healthcare) was directly coupled on a CMS chip at pH 5.0 using the standard amine coupling kit (Biacore, Freiburg/Germany). The immobilization level was about 6500 RU. […] The dissociation was monitored for 120 seconds. Bulk refractive index differences were corrected for by subtracting the response obtained on reference flow cell. […] Kinetic constants were derived using the Biacore T100 Evaluation Software (vAA, Biacore AB, Uppsala/Sweden), to fit rate equations for 1:1 Langmuir binding by numerical integration (Table 4).
Based on the affinity values described in Example 2, the affinity of anti-BCMA antibodies to human BCMA vs. cynomolgus BCMA were compared and cyno/hu affinity ratio (gap) values were calculated (Table 5).

human BCMA on cells = molecular target: T2, human BCMA on cells; assay: flow cytometry on HEK-huBCMA cells, PE anti-human Fc detection

| Binder | Kd [1] | Kd [2] | Kd [3] | Kd [4] | koff [4] | kon [4] | Kd [5] | koff [5] | kon [5] | Affinity cyno/hu gap [6] | EC50 (human BCMA on cells) |
| --- | --- | --- | --- | --- | --- | --- | --- | --- | --- | --- | --- |
| B1 | 51 pM | 730 pM | 28 pM | 478 pM | 0.000235 s⁻¹ | 491000 M⁻¹ s⁻¹ | 51.6 pM | 4.39e-05 s⁻¹ | 851000 M⁻¹ s⁻¹ | 9.3 fold | 2.46 nM and 0.35 µg/mL |
| B2 | – | – | – | – | – | – | – | – | – | – | 1.47 nM and 0.21 µg/mL |
| B3 | – | – | – | – | – | – | – | – | – | – | 11.3 nM and 1.63 µg/mL |
| B4 | – | 900 pM | 48 pM | 974 pM | 0.000442 s⁻¹ | 454000 M⁻¹ s⁻¹ | 63.3 pM | 5.15e-05 s⁻¹ | 814000 M⁻¹ s⁻¹ | 15.4 fold | 2.08 nM and 0.3 µg/mL |
| B5 | 270 pM | – | 62 pM | 2170 pM | 0.000467 s⁻¹ | 215000 M⁻¹ s⁻¹ | 155 pM | 5.58e-05 s⁻¹ | 361000 M⁻¹ s⁻¹ | 14 fold | 1.73 nM and 0.25 µg/mL |
| B6 | – | – | – | – | – | – | – | – | – | – | 1.24 nM and 0.18 µg/mL |
| B7 | – | – | – | – | – | – | – | – | – | – | 1.55 nM and 0.22 µg/mL |
| B8 | 34 pM | 490 pM | 17 pM | 739 pM | 9.76e-05 s⁻¹ | 132000 M⁻¹ s⁻¹ | 178 pM | 3.55e-05 s⁻¹ | 200000 M⁻¹ s⁻¹ | 4.2 fold | 1.18 nM and 0.17 µg/mL |
